The target of experiment [1] is T1, CD40L (Homo sapiens, UniProt P29965).
T1 sequence (P29965 113-261 limits assumed): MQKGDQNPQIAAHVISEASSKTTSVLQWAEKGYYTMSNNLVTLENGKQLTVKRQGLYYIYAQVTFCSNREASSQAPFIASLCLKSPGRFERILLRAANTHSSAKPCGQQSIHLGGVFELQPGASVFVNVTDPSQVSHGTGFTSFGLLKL
Nature of the experiment: Octet Red label-free association/dissociation analysis. In kind it is binding. On the procedure: Label-free analyses of the associations and dissociations of base peptides and serine derivatives of base peptides with the CD40L target protein were performed using the Octet Red system (ForteBio, Inc., USA) according to the manufacturer's instructions. These analyses provide kinetic constants of CD40L binding activity, especially the association rate constant (Ka) and dissociation rate constant ([…]) of binding, i.e., measures of the “on” and “off” rates of the peptides relative to soluble CD40L.
On the technique in general: BLI is a label-free optical method that tracks binding on a fibre tip over time.

Experiment [2] addresses T2, CD40L-CD40 interaction (Homo sapiens, UniProt P29965).
T2 sequence (P29965 113-261 limits assumed): T1 sequence (P29965 113-261 limits assumed)
Briefly: Chemiluminescent proximity assay (Alphascreen). The format is binding. On the procedure: In one example, the Alphascreen assay (PerkinElmer) was employed according to the manufacturer's instructions.
Homodimers and heterodimers were also assayed by chemiluminescent proximity assay for their ability to inhibit CD40L-CD40 interaction.
A general note: Bead proximity is the source of the signal in Alpha formats.

The target in experiment [3] is T3, CD40 ligand (UniProt P29965 108-261, limits assumed).
T3 construct: Used immobilised, soluble, or biotinylated on streptavidin beads; also called CD154; soluble CD40L
T3 sequence (looked up): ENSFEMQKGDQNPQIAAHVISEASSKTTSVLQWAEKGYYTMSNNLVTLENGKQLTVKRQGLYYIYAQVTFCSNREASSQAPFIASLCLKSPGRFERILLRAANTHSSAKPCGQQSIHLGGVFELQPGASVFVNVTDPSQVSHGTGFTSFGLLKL
Briefly: Alphascreen, PEGylated peptide, inhibition of CD40L/CD40-Fc.

The target in experiment [4] is T3, CD40 ligand. Briefly: cell-based or functional assay.
In experiment [5] the target is T3, CD40 ligand. Nature of the experiment: Octet Red label-free (BLI).
The target in experiment [6] is T3, CD40 ligand. Nature of the experiment: Alphascreen, unmodified peptide, inhibition of CD40L/CD40-Fc.
[7] abbreviates: base peptides, equilibrium dissociation constant, read-out: KD.
Setting [8] is: Cys-Ser derivative peptides, read-out: KD value.

Usually Kd stands for the equilibrium constant for the complex coming apart.

Read-outs that look alike come from different tables or passages of the source. Residues, ends and D or L forms follow the SMILES beside them. No end group written: not given here. PEG = not defined here

As to “LDLFGDFNGLPEGADRTEFYQHEGHWQNRMILGDSLQVMASLAEREGLRGKVQCIYFDPPYGIKFN [CD40L M9_763]”, in experiment [1] (setting [7]), the equilibrium dissociation constant (Kd) turned out to be 27 nM.

As to “PFTWRPTIFWIIQLIVYMRHFGGGGSRSELLRENICRYVSLFDHPLQRNTPLDELRFVIFDTETSGFDLVKDRILSIR [CD40L D1_0014]”, the Kd in experiment [1] stood at 48 nM. Moreover, the “higher affinity for CD40L than the base monomeric peptide” value in experiment [1] (heterodimer versus N-terminal monomer, from Table 2 data) was 6 fold.

For `CC[C@H](C)[C@H](NC(=O)[C@H](CC(N)=O)NC(=O)[C@H](Cc1ccccc1)NC(=O)[C@@H]1CCCN1C(=O)[C@@H](NC(=O)[C@H](CC(N)=O)NC(=O)[C@@H](NC(=O)CNC(=O)[C@H](Cc1ccccc1)NC(=O)[C@H](CC(C)C)NC(=O)[C@@H](NC(=O)[C@H](Cc1ccccc1)NC(=O)[C@H](CO)NC(=O)[C@@H](N)Cc1c[nH]cn1)C(C)C)C(C)C)C(C)C)C(=O)N[C@H](C(=O)N[C@@H](CC(=O)O)C(=O)N[C@@H](Cc1ccccc1)C(=O)N[C@@H](CCC(N)=O)C(=O)N[C@@H](CCSC)C(=O)N[C@@H](CCCNC(=N)N)C(=O)N[C@H](C(=O)N[C@@H](CCCCN)C(=O)N[C@@H](CO)C(=O)O)C(C)C)[C@@H](C)CC` [CD40L M1_42s] (H-HSFVLFGVNVPFNIIDFQMRVKS-OH), the Kd in experiment [1] (setting [8]) came out at 100 nM.

`CC[C@H](C)[C@H](NC(=O)[C@H](CC(N)=O)NC(=O)[C@H](Cc1ccccc1)NC(=O)[C@@H]1CCCN1C(=O)[C@@H](NC(=O)[C@H](CC(N)=O)NC(=O)[C@@H](NC(=O)CNC(=O)[C@H](Cc1ccccc1)NC(=O)[C@H](CC(C)C)NC(=O)[C@@H](NC(=O)[C@H](Cc1ccccc1)NC(=O)[C@H](CO)NC(=O)[C@@H](N)Cc1c[nH]cn1)C(C)C)C(C)C)C(C)C)C(=O)N[C@H](C(=O)N[C@@H](CC(=O)O)C(=O)N[C@@H](Cc1ccccc1)C(=O)N[C@@H](CCC(N)=O)C(=O)N[C@@H](CCSC)C(=O)N[C@@H](CCCNC(=N)N)C(=O)N[C@H](C(=O)N[C@@H](CCCCN)C(=O)N[C@@H](CS)C(=O)O)C(C)C)[C@@H](C)CC` [CD40L M1_42] (H-HSFVLFGVNVPFNIIDFQMRVKC-OH; N-terminus and C-terminus assumed): the equilibrium dissociation constant (Kd) in experiment [1] (setting [7]) was found to be 30 nM.

Regarding `CC[C@H](C)[C@H](NC(=O)[C@H](C)NC(=O)[C@@H](NC(=O)[C@H](CCSC)NC(=O)[C@H](CCC(=O)O)NC(=O)[C@H](CO)NC(=O)[C@@H](N)CC(C)C)[C@@H](C)CC)C(=O)N[C@@H](Cc1ccc(O)cc1)C(=O)N[C@H](C(=O)N[C@@H](Cc1ccccc1)C(=O)N[C@@H](CC(C)C)C(=O)N[C@@H](Cc1c[nH]c2ccccc12)C(=O)N[C@@H](CCCCN)C(=O)N[C@@H](CCCCN)C(=O)N[C@H](C(=O)N[C@@H](Cc1ccccc1)C(=O)N[C@@H](CC(C)C)C(=O)O)C(C)C)C(C)C` [CD40L M7_217s] (H-LSEMIAIYVFLWKKVFL-OH; N-terminus and C-terminus assumed), in experiment [1] (setting [8]), the Kd was determined as 100 nM.

`CC[C@H](C)[C@H](NC(=O)[C@H](CC(C)C)NC(=O)[C@H](Cc1c[nH]c2ccccc12)NC(=O)[C@H](CCSC)NC(=O)[C@H](CCC(=O)O)NC(=O)CNC(=O)[C@H](CCC(=O)O)NC(=O)[C@H](CC(C)C)NC(=O)[C@H](CO)NC(=O)[C@H](CCC(=O)O)NC(=O)[C@@H](NC(=O)[C@@H](N)CCCNC(=N)N)[C@@H](C)CC)C(=O)N[C@@H](CC(N)=O)C(=O)N1CCC[C@H]1C(=O)N[C@@H](Cc1ccccc1)C(=O)N[C@@H](CC(N)=O)C(=O)NCC(=O)N[C@@H](CCC(=O)O)C(=O)N[C@H](C(=O)N[C@@H](CC(C)C)C(=O)N[C@@H](CC(=O)O)C(=O)N[C@@H](CCC(=O)O)C(=O)N[C@@H](Cc1c[nH]cn1)C(=O)N[C@H](C(=O)N[C@@H](CC(C)C)C(=O)N[C@@H](CCC(=O)O)C(=O)N[C@H](C(=O)N[C@@H](Cc1c[nH]c2ccccc12)C(=O)N[C@@H](CC(C)C)C(=O)N[C@@H](CCCCN)C(=O)O)C(C)C)[C@@H](C)O)[C@@H](C)O` [CD40L M8_748] (H-RIESLEGEMWLINPFNGETLDEHTLEVWLK-OH): the Kd in experiment [1] was 5 nM. In experiment [2], the EC50 was found to be 184 nM.

For `CC(C)C[C@H](NC(=O)[C@H](Cc1ccc(O)cc1)NC(=O)[C@H](CC(=O)O)NC(=O)[C@H](CCCNC(=N)N)NC(=O)[C@H](CCCNC(=N)N)NC(=O)[C@H](Cc1ccccc1)NC(=O)[C@H](CO)NC(=O)[C@H](CO)NC(=O)[C@H](Cc1ccc(O)cc1)NC(=O)[C@H](Cc1ccccc1)NC(=O)[C@H](CCCNC(=N)N)NC(=O)[C@H](Cc1ccccc1)NC(=O)[C@H](CC(C)C)NC(=O)[C@H](Cc1ccccc1)NC(=O)[C@H](Cc1ccccc1)NC(=O)[C@H](CC(C)C)NC(=O)[C@H](CC(N)=O)NC(=O)[C@H](Cc1ccc(O)cc1)NC(=O)[C@H](CCCNC(=N)N)NC(=O)[C@@H]1CCCN1C(=O)[C@@H]1CCCN1)C(=O)N[C@@H](Cc1ccc(O)cc1)C(=O)N[C@@H](Cc1ccccc1)C(=O)O` [CD40L M1_9s] (H-PPRYNLFFLFRFYSSFRRDYLYF-OH), the Kd in experiment [1] (setting [8]) was found to be 300 nM.

Regarding {PEG}-HSFVLFGVNVPFNIIDFQMRVKS (reading uncertain, also called PEGylated M1_42S) [PEGylated CD40L M1_42s], the EC50 in experiment [3] stood at 112 nM. In addition, the “EC50 PEGylated peptide, inhibition of CD40L-induced CD86 expression on primary B-cells” value (shortened to “EC50 PEGylated peptide, inhibition”) in experiment [4] was 5000 nM.

For {PEG}-PRWVRNRFYSLFVPSGVQRGGIHLWFSNWVR (reading uncertain, also called PEGylated M1_50S) [PEGylated CD40L M1_50s], the EC50 in experiment [3] worked out at 1500 nM. Further, the “EC50 PEGylated peptide, inhibition” value in experiment [4] stood at 30 nM.

In turn, LWRLNEWNYSDAELLSLIEWCIDH (Base peptide) [CD40L M8_721] displayed a Kd in experiment [5] of 7 nM. Moreover, in experiment [6], the EC50 turned out to be 524 nM.

Regarding {PEG}-LLYVKVISFFSMLVQYNNFQTYK (reading uncertain) [PEGylated CD40L M2_159s], the EC50 in experiment [3] came out at 120 nM.

The molecule {PEG}-HPFSIKNVFSIWNFFSVY (reading uncertain, also called PEGylated M1_6S) [PEGylated CD40L M1_6s] came in with an EC50 in experiment [3] of 48 nM. Moreover, the “EC50 PEGylated peptide, inhibition” value in experiment [4] turned out to be 1.5 nM.

In experiment [5], PFTWRPTIFWIIQLIVYMRHF (Base peptide; also called CD40L M1-206) [CD40L M7_206] returned a Kd of 280 nM. In experiment [6], this molecule came in with an EC50 of 190 nM.

In the case of {PEG}-DAAGREFFQIAGLFSFRHHWWQA (reading uncertain, also called PEGylated M1_30S) [PEGylated CD40L M1_30s], the EC50 in experiment [3] stood at 32 nM. Also, the “EC50 PEGylated peptide, inhibition” value in experiment [4] is > 2000 nM.

B1: CD40L M9_789 (peptide)
peptide: LLAEQAGTLKSELEAMPLGEYEHAARYVSEVECNWKTFAGNYSECDHCHANHQDWITDIELEESELEVNDYHWILHYTHDEDVEDEMRIHDEHEAKFYYFWPNFT
notes: Base peptide
B1 showed an equilibrium dissociation constant (Kd) in experiment [5] of 4 nM. In experiment [6], this molecule came in with an EC50 of 331 nM.

In experiment [3], {PEG}-PPRYNLFFLFRFYSSFRRDYLYF (reading uncertain, also called PEGylated M1_9S) [PEGylated CD40L M1_9s] returned an EC50 of 48 nM. Also, the “EC50 PEGylated peptide, inhibition” value in experiment [4] was 180 nM.

B2: LAEHAVWSLKcFPDWEWYNINIFGTDDPNHFWVEcDGHGKILFPGYPEGYYENHFLHSFELED (peptide)
peptide: LAEHAVWSLKCFPDWEWYNINIFGTDDPNHFWVECDGHGKILFPGYPEGYYENHFLHSFELED
modifications: not fully specified
For the molecule B2, the dissociation constant Kd in experiment [1] (setting [7]) was determined as 8 nM. Further, in experiment [2] (monomeric non-PEGylated (unmodified) base peptide; 50% reduction in control emission at 520-620 nm; read-out: EC50nmodified) CD40L/CD40-Fc/BAF617), the EC50 turned out to be 197 nM.

As to {PEG}-LPFVPYRSHVLKYGWFFPVQWSIFAVLPFQYLHRSR (reading uncertain, also called PEGylated M1-18S) [PEGylated CD40L M1_18s], the EC50 in experiment [3] was 3300 nM. Besides, the “EC50 PEGylated peptide, inhibition” value in experiment [4] was 90 nM.

B3: CD40L M8_720 (peptide)
peptide: RLPETRKAQAALATKYGIYGFCYYHYWFNGRRILESPVDAMLESGEPDFPFMLCWANENWT
notes: Base peptide
As to B3, the Kd in experiment [5] is 4 nM. For the same molecule, the EC50 in experiment [6] turned out to be 238 nM.

With {PEG}-SIQYHWRYSRFKYYFQLIWVYYSHV (reading uncertain) [PEGylated CD40L M1_82s], the EC50 in experiment [3] was found to be 120 nM.

As for LCEMIAIYVFLWKKVFL [CD40L M7_217], in experiment [4], the “EC50 unmodified peptide, inhibition of CD40L-induced CD86 expression on primary B-cells” value is 2500 nM.

These data come from patent US20130266605A1, “PEPTIDE INHIBITORS OF CD40L SIGNALING AND USES THEREFOR” (PHYLOGICA LIMITED, priority 2010, published 2013).
